Data from publication PMC11800616 (Mobile DNA, 2025).
Read-outs that look alike come from different tables or passages of the source.

Assays:
[1] = biological target: T1, LINE-1 ORF2p (translation product of L1 ORF2), endogenous (human (endogenous in N2102Ep and …, UniProt O00370 1-1275)); test: affinity purification with mass spectrometry
[2] = biological target: T1, LINE-1 ORF2p (translation product of L1 …); test: affinity purification with mass spectrometry; remark: listed apart in the source

T1 sequence (O00370 whole entry): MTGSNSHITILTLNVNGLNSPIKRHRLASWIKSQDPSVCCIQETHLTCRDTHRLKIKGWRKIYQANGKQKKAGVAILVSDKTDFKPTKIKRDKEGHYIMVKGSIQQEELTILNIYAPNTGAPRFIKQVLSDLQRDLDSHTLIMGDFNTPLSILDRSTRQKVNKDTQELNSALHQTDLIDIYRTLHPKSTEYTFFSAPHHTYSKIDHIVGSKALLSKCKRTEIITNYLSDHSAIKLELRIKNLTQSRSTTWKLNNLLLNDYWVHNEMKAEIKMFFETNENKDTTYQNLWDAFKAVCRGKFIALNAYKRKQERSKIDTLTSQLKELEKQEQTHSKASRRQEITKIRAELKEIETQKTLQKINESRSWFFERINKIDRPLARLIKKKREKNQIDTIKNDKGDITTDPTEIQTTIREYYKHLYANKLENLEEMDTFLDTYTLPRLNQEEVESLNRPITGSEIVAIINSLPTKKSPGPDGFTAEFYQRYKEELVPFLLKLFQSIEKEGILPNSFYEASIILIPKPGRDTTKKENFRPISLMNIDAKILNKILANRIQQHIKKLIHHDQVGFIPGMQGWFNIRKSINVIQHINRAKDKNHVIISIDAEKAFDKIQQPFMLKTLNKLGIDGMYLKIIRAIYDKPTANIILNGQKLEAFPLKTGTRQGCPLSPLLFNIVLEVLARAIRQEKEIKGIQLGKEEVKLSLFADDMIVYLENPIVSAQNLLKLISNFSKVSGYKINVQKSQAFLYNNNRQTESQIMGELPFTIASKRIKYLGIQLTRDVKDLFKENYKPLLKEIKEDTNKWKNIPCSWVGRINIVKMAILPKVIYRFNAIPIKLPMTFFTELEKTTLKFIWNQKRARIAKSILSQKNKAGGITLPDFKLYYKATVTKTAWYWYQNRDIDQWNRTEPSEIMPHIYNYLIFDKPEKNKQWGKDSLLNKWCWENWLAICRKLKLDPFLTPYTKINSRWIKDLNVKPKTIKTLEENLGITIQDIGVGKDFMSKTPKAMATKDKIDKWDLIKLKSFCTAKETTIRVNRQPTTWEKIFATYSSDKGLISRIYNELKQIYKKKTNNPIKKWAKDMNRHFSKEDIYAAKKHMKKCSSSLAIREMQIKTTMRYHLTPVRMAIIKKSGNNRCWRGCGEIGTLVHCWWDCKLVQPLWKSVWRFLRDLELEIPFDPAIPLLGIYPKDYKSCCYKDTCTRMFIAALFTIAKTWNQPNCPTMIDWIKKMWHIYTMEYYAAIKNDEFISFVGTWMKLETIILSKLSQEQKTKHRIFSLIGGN

ORF1p:ORF2p molar ratio in the affinity enriched fraction [1]: ~279 molar ratio (ORF1p per ORF2p)
ORF1p:ORF2p molar ratio in the affinity enriched fraction [2]: ~184 molar ratio (ORF1p per ORF2p)
B1: LINE-1 ORF1p (translation product of L1 ORF1), endogenous (natural protein)
chain: MGKKQNRKTGNSKTQSASPPPKERSSSPATEQSWMENDFDELREEGFRRSNYSELREDIQTKGKEVENFEKNLEECITRITNTEKCLKELMELKTKARELREECRSLRSRCDQLEERVSAMEDEMNEMKREGKFREKRIKRNEQSLQEIWDYVKRPNLRLIGVPESDVENGTKLENTLQDIIQENFPNLARQANVQIQEIQRTPQRYSSRRATPRHIIVRFTKVEMKEKMLRAAREKGRVTLKGKPIRLTADLSAETLQARREWGPIFNILKEKNFQPRISYPAKLSFISEGEIKYFIDKQMLRDFVTTRPALKELLKEALNMERNNRYQPLQNHAKM
